Earlier results in publication PMC3496018.

Assays:
LRP6 (Homo sapiens) = LRP6 (Homo sapiens) (UniProt O75581)
[1] = molecular target: Syndecan-4 (Homo sapiens) (UniProt P31431)
Sequence of UniProt P31431 (P31431 19-145): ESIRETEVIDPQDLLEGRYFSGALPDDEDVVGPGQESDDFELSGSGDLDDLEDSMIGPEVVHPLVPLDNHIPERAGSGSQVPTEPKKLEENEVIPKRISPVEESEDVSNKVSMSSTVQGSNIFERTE

Sequence of UniProt O75581 (O75581 20-1370): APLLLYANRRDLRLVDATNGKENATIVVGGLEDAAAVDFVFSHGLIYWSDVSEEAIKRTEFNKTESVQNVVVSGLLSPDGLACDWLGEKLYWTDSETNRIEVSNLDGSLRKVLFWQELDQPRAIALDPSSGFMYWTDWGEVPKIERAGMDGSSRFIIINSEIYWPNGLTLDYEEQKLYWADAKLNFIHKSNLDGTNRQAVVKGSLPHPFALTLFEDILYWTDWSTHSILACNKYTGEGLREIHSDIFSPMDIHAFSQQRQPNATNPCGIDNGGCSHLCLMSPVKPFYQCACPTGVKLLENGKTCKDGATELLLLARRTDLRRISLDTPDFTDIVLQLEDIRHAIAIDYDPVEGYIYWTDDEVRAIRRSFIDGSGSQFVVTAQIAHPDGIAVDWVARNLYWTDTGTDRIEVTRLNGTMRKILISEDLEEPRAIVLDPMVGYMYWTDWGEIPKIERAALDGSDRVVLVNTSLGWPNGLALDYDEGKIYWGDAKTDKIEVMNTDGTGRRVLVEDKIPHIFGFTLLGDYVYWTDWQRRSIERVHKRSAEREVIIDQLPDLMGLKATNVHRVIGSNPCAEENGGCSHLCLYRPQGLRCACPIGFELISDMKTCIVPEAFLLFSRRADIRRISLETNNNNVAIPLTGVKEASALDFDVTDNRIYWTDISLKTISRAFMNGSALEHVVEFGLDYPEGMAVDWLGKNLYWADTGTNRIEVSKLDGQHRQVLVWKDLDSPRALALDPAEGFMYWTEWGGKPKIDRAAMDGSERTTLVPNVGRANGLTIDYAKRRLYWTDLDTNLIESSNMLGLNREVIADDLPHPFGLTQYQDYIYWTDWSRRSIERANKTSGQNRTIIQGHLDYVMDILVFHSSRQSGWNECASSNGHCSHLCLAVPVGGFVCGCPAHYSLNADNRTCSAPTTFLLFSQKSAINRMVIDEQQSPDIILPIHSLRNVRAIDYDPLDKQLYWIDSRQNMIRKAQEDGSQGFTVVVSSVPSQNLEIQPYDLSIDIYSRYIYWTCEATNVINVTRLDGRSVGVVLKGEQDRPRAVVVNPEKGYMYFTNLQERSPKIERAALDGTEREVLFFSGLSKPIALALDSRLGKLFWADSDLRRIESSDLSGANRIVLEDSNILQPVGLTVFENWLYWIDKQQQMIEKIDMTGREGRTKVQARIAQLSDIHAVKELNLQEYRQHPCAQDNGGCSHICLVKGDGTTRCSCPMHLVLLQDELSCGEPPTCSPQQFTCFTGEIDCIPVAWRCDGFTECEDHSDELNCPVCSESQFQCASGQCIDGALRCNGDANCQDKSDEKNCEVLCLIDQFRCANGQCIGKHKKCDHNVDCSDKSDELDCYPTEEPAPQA

## RSPO1 (from UniProt Q2MKA7)
LRP6 (Homo sapiens)
  Kd: 1.2 nM

## RSPO3 (from UniProt Q9BXY4)
[1]
  Kd: 0.88 nM
